Read-outs that look alike come from different tables or passages of the source.
B1: ZV-67 (antibody, V domains shown)
VH: QVQLQQSGTGLARPGASVKLSCKASGYTFTSYGISWVTQRAGQGLEWIGVIYPRSGNTYYNEKFRGKATLTADKSSSSAYMELRGLTAEDSAVYFCARENYGSVYWGQGTTLTVSS
VL: DIVMTQSQKFMSTSVGDRVSITCKASQNVGTAVAWYQQKPGQSPKLLIYSASNRYTGVPDRFTGSGSGTDFTLTISNMQSEDLADYFCQQFSSYPYTFGGGTKLEIK
B2: ZV-54 (antibody, V domains shown)
VH: QVQLQQSGVGLARPGTSVKLSCKASGYSFTTYGISWVTQRPGQGLEWIGVIYPRSNNTYYNERFRGKATLTADKSSSSAYLELRGLTAEDSAVYFCARENYGSVYWGQGTTLTVSS
VL: DIVMTQSQKFMSTSVGDRVTITCKASQSVGTAVAWYHQKPGQSPKLLIYSASNRYTGVPDRFTGSGSGTDFTLTITYMQSEDLADYFCQQFSNYPFTFGGGTKLEIK
notes: also called ZWT; Rec54
B3: FcMut186 (antibody)
chain: ASTKGPSVFPLAPSSKSTSGGTAALGCLVKDYFPEPVTVSWNSGALTSGVHTFPAVLQSSGLYSLSSVVTVPSSSLGTQTYICNVNHKPSNTKVDKKVEPKSCDKTHTCPPCPAPELLGGPSVFLFPPKPKDTLMISRDPEVTCVVVDVSHEDPEVKFNWYVDGVEVHNAKTKPREEQYNSTYRVVSVLRVLHVDWLNGKEYKCKVSNKALPAPIEKTISKAKGQPREPQVYTLPPSRDELTKNQVSLTCLVKGFYPSDIVVEWESNGQPENNYKTTPPVLDSDGSFFLYSKLTVDKSRWQQGNVFSCSVMHEALHNHYTQKSLSLSPGK
B4: FcMut229 (antibody)
chain: ASTKGPSVFPLAPSSKSTSGGTAALGCLVKDYFPEPVTVSWNSGALTSGVHTFPAVLQSSGLYSLSSVVTVPSSSLGTQTYICNVNHKPSNTKVDKKVEPKSCDKTHTCPPCPAPELLGGPSVFLFPPKPKDTLMISRDPEVTCVVVDVSHEDPEVKFNWYVDGVEVDNAKTKPREEQYNSTYRVVSVLRVLHVDWLNGKEYKCKVSNKALPAPIEKTISKAKGQPREPQVYTLPPSRDELTKNQVSLTCLVKGFYPSDIVVEWESNGQPENNYKTTPPVLDSDGSFFLYSKLTVDKSRWQQGNVFSCSVMHEALHNHYTQKSLSLSPGK
B5: FcMut171 (antibody)
chain: ASTKGPSVFPLAPSSKSTSGGTAALGCLVKDYFPEPVTVSWNSGALTSGVHTFPAVLQSSGLYSLSSVVTVPSSSLGTQTYICNVNHKPSNTKVDKKVEPKSCDKTHTCPPCPAPELLGGPSVFLFPPKPKDTLMISRDPEVTCVVVDVSHEDPEVKFNWYVDGVEVHDAKTKPREEQYNSTYRVVSVLRVLHVDWLNGKEYKCKVSNKALPAPIEKTISKAKGQPREPQVYTLPPSRDELTKNQVSLTCLVKGFYPSDIAVEWESNGQPENNYKTTPPVLDSDGSFFLYSKLTVDKSRWQQGNVFSCSVMHEALHNHYTQKSLSLSPGK

Tests used:
[1] = molecular target: T1, wild type ZIKV EDIII displayed on yeast (yeast; Zika virus); test: yeast display of wild type ZIKV EDIII, flow cytometry (Alexa-647 MFI) over hybridoma supernatant dilutions; KD from the 50% maximal binding dilution and the Octet-quantified supernatant concentration
T1 construct: also called WT EDIII

[2] = molecular target: T1, wild type ZIKV EDIII displayed on yeast
DENV EDIII protein = molecular target: T2, DENV EDIII protein (dengue virus, UniProt P17763 573-679); test: ELISA of Example 7 on coated DENV EDIII, where p-1318 says 'minimal cross-reactivity with the DENV EDIII protein'
T2 construct: domain: EDIII; also called EDIII-DV1; dengue virus E protein domain III

recombinant FcRn protein = molecular target: T3, recombinant FcRn protein (Homo sapiens (Human), UniProt P55899 24-297; P61769 21-119); test: BLI (Octet): antibody on anti-CH1 biosensors, recombinant FcRn at pH 6.0; fold change against wild type Motavizumab
T3 construct: also called neonatal Fc receptor; copies: 1 + 1
T3 sequence (P55899 24-297 limits assumed, chain 1 of 2): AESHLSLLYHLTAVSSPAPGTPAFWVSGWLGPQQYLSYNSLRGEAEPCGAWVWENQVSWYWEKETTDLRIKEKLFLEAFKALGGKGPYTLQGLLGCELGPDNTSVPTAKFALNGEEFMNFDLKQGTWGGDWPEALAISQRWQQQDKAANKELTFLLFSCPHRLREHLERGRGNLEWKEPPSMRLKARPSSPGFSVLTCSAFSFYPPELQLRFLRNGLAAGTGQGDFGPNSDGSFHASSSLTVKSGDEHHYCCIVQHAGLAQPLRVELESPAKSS
T3 sequence (P61769 21-119 limits assumed, chain 2 of 2): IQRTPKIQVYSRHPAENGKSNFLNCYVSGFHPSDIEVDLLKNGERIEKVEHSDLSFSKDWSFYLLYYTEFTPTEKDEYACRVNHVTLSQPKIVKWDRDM

T1 sequence (P32781 19-87): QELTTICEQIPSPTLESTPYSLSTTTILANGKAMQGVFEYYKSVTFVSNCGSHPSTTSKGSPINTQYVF
T2 sequence (P17763 573-679 limits assumed): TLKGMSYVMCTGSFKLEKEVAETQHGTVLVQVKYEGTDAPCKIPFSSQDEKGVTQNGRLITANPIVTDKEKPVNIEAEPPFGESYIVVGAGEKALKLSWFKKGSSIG

| Binder | Kd [1] [nM] | Kd [2] [nM] | binding result (DENV EDIII protein) | Kd (fold increase) (recombinant FcRn protein) [fold] | koff (fold decrease) (recombinant FcRn protein) [fold] | kon (fold increase) (recombinant FcRn protein) [fold] |
| --- | --- | --- | --- | --- | --- | --- |
| B1 | 0.65 | – | – | – | – | – |
| B2 | – | 0.74 | no binding | – | – | – |
| B3 | – | – | – | 10.3 | 3.5 | 2.7 |
| B4 | – | – | – | 5.6 | 4.3 | 1.1 |
| B5 | – | – | – | 8.2 | 3.5 | 2 |

— patent US20170298119A1 (VISTERRA, published 2017)
